Test results as given in patent publication US20020049159A1 (published 2002).

Target: T1, OP-1 pro domain polypeptide (human, UniProt P18075 30-292)
T1 construct: Two pro domains (39 kDa each) stand in the soluble complex with one mature dimer; The complex was isolated from CHO conditioned medium; also called pro domain peptide
Test: soluble complex purified from CHO conditioned medium without denaturants (Zn-IMAC, S-Sepharose, Sephacryl S-200HR gel filtration); elutes at an apparent 110 kDa
Description: In this example, OP-1 was expressed in mammalian (CHO, Chinese hamster ovary) cells as described in the art (see, for example, international application US90/05903 (WO 91/05802). The CHO cell conditioned media containing 0.5% FBS is initially purified using Immobilized Metal-Ion Affinity Chromatography (IMAC). The soluble OP-1 complex from conditioned media binds very selectively to the Zn-IMAC resin and a high concentration of imidazole (50 mM imidazole, pH 8.0) is required for the effective elution of the bound complex. The Zn-IMAC purified soluble OP-1 is next applied to an S-Sepharose action-exchange column equilibrated in 20 mM NaPO₄ (pH 7.0) with 50 mM NaCl. The protein then is applied to a Sephacryl S-200HR column equilibrated in TBS. Using substantially the same protocol, soluble morphogens can also be isolated from one or more body fluids, including milk, serum, cerebrospinal fluid or peritoneal fluid.

T1 sequence (P18075 30-292): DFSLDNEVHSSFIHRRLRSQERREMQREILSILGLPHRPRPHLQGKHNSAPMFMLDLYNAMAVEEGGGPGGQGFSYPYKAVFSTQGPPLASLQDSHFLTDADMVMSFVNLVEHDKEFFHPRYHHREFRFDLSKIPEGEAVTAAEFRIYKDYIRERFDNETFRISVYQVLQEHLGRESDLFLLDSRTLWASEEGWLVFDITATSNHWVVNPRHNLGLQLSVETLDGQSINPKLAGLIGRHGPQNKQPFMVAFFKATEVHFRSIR

B1: mature human OP-1 dimer (recombinant, expressed in CHO cells) (ligand)
chain: STGSKQRSQNRSKTPKNQEALRMANVAENSSSDQRQACKKHELYVSFRDLGWQDWIIAPEGYAAYYCEGECAFPLNSYMNATNHAIVQTLVHFINPETVPKPCCAPTQLNAISVLYFDDSSNVILKKYRNMVVRACGCH
notes: Dimer of 35-36 kDa, glycosylated when made in CHO cells; also called hOP-1; human osteogenic protein 1
B1: binds.
